From the Human Domainome abundance scans (Beltran et al. 2025)

B1: F-BAR and double SH3 domains protein 1, residues 467 to 528; numbered along this chain, Q86WN1 (parent)
chain: RALPCPAHVVFRYQAGREDELTITEGEWLEVIEEGDADEWVKARNQHGEVGFVPERYLNFPD

Variants of: B1
Experiment: abundance fitness (aPCA) (normalised: wild type 0, dead -1); higher = more abundant; growth selection in yeast, the domain comes from the species named
Conditions: Homo sapiens

Abundance fitness: each site, then its substitutions
G51: P -0.952 | A -0.691 | N -1.17 | E -0.863 | K -0.42 | Y -0.736 | F -0.669 | Q -1.03 | M -0.843 | T -0.698 | H -0.973 | V -0.857 | D -0.706 | C -0.958 | L -0.273 | W -0.954
V53: S -0.981 | F -0.823 | T -0.868 | Q -0.624 | W -1.03 | A -0.564 | E -0.934 | P -0.922 | C -0.262 | N -0.829 | I -0.031 | Y -0.466 | G -0.624 | R -0.662 | D -0.745 | H -0.675 | M -0.673
E49: S -0.022 | Y -0.427 | Q 0.101 | P -1.05 | R -0.085 | H -0.015 | C -0.029 | K -0.026 | L -0.13 | T -0.075 | A -0.131 | V -0.139 | F -0.088 | D -0.118 | I 0.1
E39: N 0.227 | D -0.228 | H 0.188 | Y -0.226 | T 0.02 | F 0.042 | R 0.017 | W -0.227 | M 0.148 | K 0.013 | A -0.016 | V -0.184 | G 0.066 | L -0.146 | S 0.028 | I -0.1 | C -0.103 | P -0.207 | Q -0.027
V50: N -0.737 | C -0.191 | T -0.11 | P -0.833 | F -0.29 | R -0.607 | S -0.148 | K -0.187 | L -0.285 | M -0.108 | Q -0.093 | I -0.235 | D -0.599 | H -0.554 | A -0.211 | E 0.016
G48: D -0.217 | R -0.376 | F -0.293 | K -0.328 | A -0.39 | W -0.435 | V -0.741 | H -0.34 | I -0.787 | Y -0.494 | S -0.132 | P -0.623 | E -0.169 | M -0.296 | Q -0.574 | L -0.423
E55: Q -0.138 | F -0.165 | K -0.02 | L 0.059 | T 0.026 | S -0.069 | Y -0.196 | G -0.132 | D -0.057 | R 0.038 | M 0.035 | P -0.123 | C -0.02 | H -0.133 | A -0.042 | W -0.151 | V 0.054 | N -0.055
R56: C -0.012 | D -0.074 | P -0.129 | Q 0.012 | S 0.052 | Y -0.174 | K 0.033 | F -0.164 | E 0.053 | W -0.263 | H -0.118 | L -0.117 | G -0.125 | T 0.005 | V -0.096 | M -0.126 | A 0.035
R44: M -0.175 | W -0.947 | T -0.23 | K 0.003 | V -0.165 | H -0.74 | S -0.253 | P -0.673 | Q -0.23 | Y -0.587 | F -0.756 | I -0.036 | C -0.178 | L -0.342 | E -0.268 | G -0.898
F52: L 0.104 | V -0.127 | Y 0.093 | W 0.033 | S -0.059 | D -0.431 | R -0.063 | A -0.249 | C -0.189 | I -0.152 | H -0.199 | M -0.019 | K 0.048 | Q -0.259 | G -0.491 | E -0.322 | N -0.175 | T -0.284
D38: L 0.016 | Q 0.021 | K -0.08 | N -0.017 | S 0.005 | I -0.066 | W -0.154 | M -0.17 | R 0.053 | Y -0.122
H47: V 0.004 | G 0.051 | M -0.039 | E -0.171 | L 0.01 | Y -0.215 | I -0.176 | C -0.045 | R 0.092 | Q -0.026 | F -0.246 | T -0.172 | P -0.585 | W -0.176 | A 0.164 | K 0.048 | D -0.006
A43: V -0.056 | M -0.548 | P -0.865 | H -0.629 | L -0.853 | D -0.793 | T -0.409 | S -0.578 | N -0.763 | R -0.842 | Q -0.839 | K -0.71 | Y -0.914 | C -0.038 | G -0.299 | W -0.83 | I -0.297
K42: W -0.181 | T -0.076 | E -0.496 | H -0.571 | C -0.25 | Q -0.129 | P -0.974 | D -0.664 | N -0.575 | Y -0.381 | L -0.166 | A -0.511 | R -0.182 | V -0.105 | G -0.775 | I 0.092 | S -0.325 | F -0.207 | M -0.176
N45: F -0.869 | W -1.16 | H -0.166 | L -0.737 | Y -0.377 | R -0.941 | M -0.891 | P -0.301 | E -1.08 | I -0.212 | K -0.447 | A -0.567 | V -0.949 | D -0.571 | Q -0.884 | C -0.994 | T -0.402 | G -0.576 | S -0.571
Y57: M -0.041 | F -0.006 | L -0.023 | D -0.161 | A 0.102 | H 0.208 | K -0.231 | I -0.309 | E -0.595 | G -0.44 | N 0.109
W40: C -0.181 | K -0.051 | Y 0.079 | Q -0.122 | L -0.134 | G -0.547 | N -0.33 | V -0.111 | M 0.037 | T -0.101 | E -0.196 | I -0.139 | D 0.028 | H -0.01 | S -0.25 | R 0.121 | A -0.3
V41: F -0.262 | N -1.01 | Y -0.154 | C -0.013 | L -0.199 | R -0.526 | E -1.12 | G -0.72 | S -0.73 | I -0.353 | D -0.815 | M -0.199 | H -0.929 | T -0.609 | A -0.495 | Q -0.949 | K -0.411 | P -0.94
P54: F -0.287 | N 0.198 | H -0.017 | C -0.001 | K -0.075 | W -0.117 | S -0.126 | Q -0.117 | V -0.638 | E -0.509 | Y -0.14 | I -0.426 | M -0.009 | T -0.831 | A -0.2 | D -0.539 | L -0.016 | G -0.299 | R 0.012
Q46: M -0.088 | S -0.04 | D -0.198 | Y -0.114 | E -0.052 | A 0.036 | H -0.163 | W -0.228 | R -0.028 | K 0.074 | G -0.082 | V -0.088 | I -0.142 | P -0.334 | F -0.207 | T -0.01 | C -0.018 | N -0.027 | L -0.056
